Reference: the nanobody polyreactivity screen of Harvey et al. (2022)

Test: yeast display, Sf9 membrane polyspecificity reagent, FACS + sequencing; frameworks hold sequencing errors
Summary of the method: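 After 36–48 hours of galactose induction, yeast (Saccharomyces cerevisiae BJ5465) displaying a synthetic nanobody library were stained at 4 °C for 1 hour with 10% biotinylated, detergent-solubilized Sf9 membrane reagent. Streptavidin microbeads enriched the stained cells before FACS sorting into low and high (top ~1%) gates on anti-HA and streptavidin fluorescence. Each clone's polyreactivity label reflects its gate of origin.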

| Sequence | polyreactivity (PSR sort gate) |
| --- | --- |
| QFQLVESGGGLVQAGGSLRLSCAPSGGTFGSNAMGWYRQAPGKERELVAAISTTGGTTYYADSVKGRFTISRDNAKNTVYLQMNSLKPEDTAVYYCAKDGYVYGDWYTYAYVYWGQGTQVTVSS | low polyreactivity |
| QDQLVESAGGLVQAGGSLRLSCAASGRIYVSNVMRWSRQAPGKERELVAAIDKSGGSTYYADSVKGRFTISRDNAKNTVYLQMNSLKPEDTAVYYCAATSYRQPYRYYYWGQGTQVTVSS | high polyreactivity |
| QVQRVESGGGLVQAGGSLRLSCAASGGIVSAYAMGWYRQAPGKEREFVASISRRGGSTYYADSVKGRFTISRDNAKNTVYFQMNSLKREDTAVSYCNARKYFEKSREYWGQGTQVTVSS | high polyreactivity |
| QVQLVESGGGLVQAGGSLRLSCAASGFTFSTYAMGWYRQAPGKERELVAAISFSGGSTYYADSVKGRFTISRDNAMNSVYLQMNRLKPEDTAVYYCARAYTKYFEIYFIYALLYGHWGQGTQVTVSS | low polyreactivity |
| QVQLVESGGGLVQAGGSLRLSCAASGSTFRLYAMGWYRQAPGKERELVAAISYSGGSTYYADSVKGRFTISRDNAKNTVYLQMNSLKPEDTAVYYCNAVRRHGGYYDYGYWGQGTQVTVSS | high polyreactivity |
| QVQLVESGGGLVQAGGSLRLICAASGFTLYAYAMGWYRQAPGKERELVAAISDSGGDTYYADSVKGRFTISRDNAKNTVYLQMNSLKPEDTAVYYCAALYNHWWEYDYWGQGTQVTVSS | low polyreactivity |
| QVQLVESGGGLVQAGGSLRLSCAASGSTFFIYAMGRYRQAPGKERELVAAISGSGGTTYYADSVKGRFTISRDNAKNTVYLQMNSLKPEDTAVYYCAARTFSAFWRGGYDYWGQGTQVTVSS | low polyreactivity |
| QVQLVESGGGLVQAGGSLRLSCAASGRIFGDYGMGWYRQAPGKERELVAAISSGGSTNYADSVKGRFTISRDNAKNTVYLQMNSLKPEDTAVYYCAKATYPHEYDYWGQGTQVTVSS | low polyreactivity |
| QVQLVESGGGLVQAGGSLRLSCAASGIIFDYYTMGWYRQAPGKARELVAGITRSGGRTYYADSVKGRFTISRDNAKNTVYLQMNSLKPEETAGYYCAAVQRRTYVKYESWGQGTQVTVSS | high polyreactivity |
| QVQLVESGGGLVQAGGSLRLSCASSGSIFGSYAMGWYRQPPGKESELDAAITGIGGSTYYADSVKGRFTISRDNAKNTVYLQMNSLKPEATAVYYCATRDRYRAPVVGGNYWVQGTQVTVSS | high polyreactivity |
| QVQLVESGGGLVQAGGSLRLSCAASGSTFAGNAMGWYRQAPGKERELVAAIDSSTGSTYYADSVKGRFTISRDNAKNTVYLQMNSLKPEDTAVYYCNNTSFLVKLDYWGQGTQVTVSS | low polyreactivity |
| QVQLVESGGGLVQAGGSLRLSCAASGSILNLNAMGWYRQAPGKERELVAAIRGGGRTNYADSVKGRFTISRDNAKNTVYLQMNSLKPEDTAVYYCAARITRPLTGYDYWGQGTQVTVSS | high polyreactivity |
| QDQLVESGGGLVQAGGSLRLRCADYGSTFYYYAMGWYRQAPGKERELVAVITRGGGTYYADSVKGRFTISRDNAKNTVYLQMNSLKPEDTAVYYCNARQRSSTRKGYNYWGQGTEVTVSS | high polyreactivity |
| QVHLGQSGGGLVQAGGSLRLSCAASAITFRGNAMGWYRQAPGKERDLVAVITKGGVSTYYADSVKGRFTISRDNAKNTVYLQMNSLKPEVTAVYYCAKYWSWRSVKDYYWGLGTQVTVSS | high polyreactivity |
| QLQLVESGGGLVQAGGSLRLSCAASGRIFSPYAMGWYSQAPGTASELVARISWRGSRTYFADSVKRRFTISRDNAKNTVYLQMNSLKPEDTAVYYCNAVVYRKPLRRDYWGQGTQVTVSS | high polyreactivity |
| QVQLVESGGGLGQAGGSLRLSCAASGRIFTFNAMGWYRQAPGKARELVAAISSRGDGTYYADSVKGRFTISRDNAKNTVYLQMNSLKPEDTAVYDCAADVYPYQSLSYPLQYELDYWGQGTQVTVSS | low polyreactivity |

| Sequence | polyreactivity (PSR sort gate) |
| --- | --- |
| QVQLVESGGGLVQAGGSLRLSCAASGFTTRSYAMGWYRQAPGKERELVAAISFSGGRTYYADSVKGRFTISRDNAKNTVYLQMNSLKPEDTAVYYCNARAYTRYSLLDYWGQGTQVTVSS | high polyreactivity |
| QVQLVESGGGLVQAGGSLRLSCAASGGIYDSYAMGWYRQAPGKEGEMVASISWSGGSTYYADSVKGRFTISRDNAKNTVYLQMNSLKPEDTAVYYCAADRAYAGRYWKGYHSALYDYWGEGTQVTVSS | low polyreactivity |
| QVQLVESGGGLVQAGGSLRLSCAASGLTLRRYAMGWYIQAPGKERELVASINSGTSTKYADSVKGRFTISRDNAKNTVYLQMKSLKPEDTALYYCGAAVYFPTAGSRRAYYYWGQGTQGTVSS | high polyreactivity |
| QVHLVESGGGLVQAGGSLRLSSAASGNIFESYALGWYRQAPGKERELVAAISGSGDSTNYADSVKGRFTISRDNAKNSVYLQMNSLKPEDTAVYYCAARPEVRHQYRRYDYWGQGTQVTVSS | low polyreactivity |
| QVQLVESGGGLVQAGGSLRLSCAASGIILPYYAMGWYRPAPGKEREFVATISSDGTSTYYADSVKGRFTISRDNAKNTVYLQMNSLKPEDTAVYYCDARIRQNPGGDNSWGQGTQVTVSS | low polyreactivity |
| QVQLVESGGGLVQAGGSLRLSCAASGSTFGRYVMGWYRQAPGKERELVAAISKNAGSTYYADSVKGRFTISRDNAKNTVYLQMNSLKPEDTAVYYCAADWRTKGYDSLGQGTQVTVSS | high polyreactivity |
| QVQLVESGGGLVQAGGSLRLSCAASGRTLGVNAMGWYRQAPGKERELVAAISTRGTTTNYADSVKGRFTISRDNAKNTVYLQMNSLKPEDTAVYYCAVRSRTPRAYYYWGQGTQVTVSS | low polyreactivity |
| QVQLVESGGGLVQAGGSLRLSTAASGSTLWYNDMGWFRKAPGKERELVASITSDGGSSTYADSVKGRFTISRDNEKNTVYLQMNSLKPEDTAVYYCAADWPIVQYDYWGQGTQVTVSS | low polyreactivity |
| QVQLVESGGGLVQAGGSLRLSCAASGSTFPVYAMGWYRQAPGKERELVAAISRAGSTNYADSVKGRFTISRHNAKNTVYLEMNSLKPEDTAVYYCAARGYLWAGEWYVRRDYWGQGTQVTVSS | high polyreactivity |
| QVQLVESGGGLVQAGGSLRLSCAASGRIFRDYAMGWYRQAPGKERELVAAIRSVGNTNYADSVKGRFTISRDNAKNTVYLQMNSLKPEDTAVYYCNRQGSDFSRQAIGDFRFDYWGQGTQVTVSS | low polyreactivity |
| QVQLVESGGGLVQAGGSLRLSCAASGLIFRRNAMGWYRQAPGKERELVAAISWSGGSTYYADSVKGRFTISRDNAKNTVYLQMNSLKPEDTAVYYCNRGGFSRYYYWGHGTQVTVSS | low polyreactivity |
| QVQLVESGGGIVQAGGSLRLSCAASGFIFHRNAMGWYRQAPGKERELVASITKRGGNTYYADSVKGRFTISRDTAKNTDFLQMTSLNPEDTGVYYCATQLWGWDWKRDYWGQATQVTVSS | high polyreactivity |
| QVHLVEAGGGLVQAGGSRRLSCAASGGIFTDYTMGWYRQAPGKETELVAAITWTGGSTYYADSVKGRFTISRDNAKNTVYLQMNSLKPEDTAVYDCAADDYWVNLDYWGQGTQVTVSS | low polyreactivity |
| QVQLVESGGGLVQAGGSLRLSCAASGRIFGHYAMGWYRQAPGKERELVAAITIGGSTYYADSVKGRFTISRDNAKNTVYLQMNSLKPEDTAVYYCAKVGSNYRGRLGYWGQGTQVNVSS | low polyreactivity |
| QVQLVESRGGLVQAGGSLRLSCAASGSTFRIKAMGWYRQAPGNERELFAAIRASGTSTYYADSVKGRFTISRDNGQNTVYLLMIRLKPEDTAVDYCAASAQQPVLGLSYYYWGQGTQVTVSS | high polyreactivity |
| QVQLVESGGGLVQAGGSLRLSCAASGSTFWLYVMGWYRQAPGKERELVAAISSGGITKYADSVKGRFTISRDNAKNTVYLQMNSLKPEDTAVYYCAVGVLGYRRVTGYYWGQGTQVTVTS | high polyreactivity |
